From US20250154272A1

Target: human CD137-His tag protein (R&D Systems, 9220-4B) (human) (UniProt Q07011)
Test: ELISA, human CD137-His tag protein immobilized on the plate, anti-human IgG Fc-HRP, A450-A570

B1: ctrl IgG_L-3-34-j6 (antibody, part only; not given: isotype control IgG chains and linker, not shown: another chain or arm of the molecule; small tags and cut ends)
scFv: EVQLLESGGGLVQPGESLRLSCKAFGYTFTNHHINWVRQAPGKCLEWVGYINPYNDYTTFNDKFKDRFTLSVDKSKSTAYLQMNSLRAEDTAVYYCARTWGHWYFDLWGQGTLVTVSSGGGGSGGGGSGGGGSNIQMTQSPSSLSASVGDRVTITCRASQSVSSNLAWYQQKPGKAPKLLIYDSSTRATGVPSRFSGSGSGTDFTLTISSLQPEDFATYYCQQYNNWPPWTFGCGTKLEIKR
EC50 (read off the curve): 4 ng/mL
